Measured values taken from publication PMC3401287.

Target: HER2 (human (endogenous in BT-474, SK-BR-3, MDA-MB-361)) (UniProt P04626)
Experiment: flow cytometry on cells; cell-based saturation assay: 3x10^5 BT-474 cells with increasing concentration of DyLight-488-labeled Affibody in PBS with 2% FBS, on ice, one hour; non-specific binding subtracted; three independent experiments

Z_(HER2)-GS-Cys labeled with DyLight-488 (designed binder)
Kd: 3.66 nM
